Reference: the supplement of paper PMC9112550, “Optimization of the antimicrobial peptide Bac7 by deep mutational scanning” (BMC Biology, 2022)

The sequences below were run on Escherichia coli TOP10 (assay: shrunken log2 fold change of peptide-encoding DNA abundance (4.5 h post-induction vs induction); higher = less antimicrobial activity (less host growth inhibition)). Conditions: time post-induction: 4.5 h; library: site-saturation at positions 5, 18, 19, 20.
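Further: peptides expressed intracellularly from a pBAD plasmid library in pooled LB shake-flask culture, induced with 0.3% L-arabinose, DNA abundance read by NGS, three biological replicates, DESeq2 with apeglm shrinkage.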

In order of rising “shrunken log2 fold change” value:
1. RRIRFRPPRLPRPRPRPYMFPRP  -1.11
2. RRIRSRPPRLPRPRPRPWNLPRP  -1.05
3. RRIRPRPPRLPRPRPRPITYPRP  -0.782
4. RRIRVRPPRLPRPRPRPSWYPRP  -0.698
5. RRIRERPPRLPRPRPRPTNTPRP  -0.697
6. RRIRERPPRLPRPRPRPLFNPRP  -0.62
7. RRIRCRPPRLPRPRPRPSQRPRP  -0.54
8. RRIRFRPPRLPRPRPRPGKCPRP  -0.421
9. RRIRTRPPRLPRPRPRPAIHPRP  -0.384
10. RRIRVRPPRLPRPRPRPVIQPRP  -0.336
11. RRIRWRPPRLPRPRPRPQNQPRP  -0.265
12. RRIRHRPPRLPRPRPRPICHPRP  -0.265
13. RRIRFRPPRLPRPRPRPPFHPRP  -0.231
14. RRIRYRPPRLPRPRPRPLHVPRP  -0.21
15. RRIRQRPPRLPRPRPRPNTHPRP  -0.203
16. RRIRFRPPRLPRPRPRPQHQPRP  -0.185
17. RRIRERPPRLPRPRPRPTSCPRP  -0.178
18. RRIRIRPPRLPRPRPRPTAGPRP  -0.167
19. RRIRLRPPRLPRPRPRPGCNPRP  -0.162
20. RRIRERPPRLPRPRPRPSTAPRP  -0.151
21. RRIRFRPPRLPRPRPRPVCFPRP  -0.151
22. RRIRERPPRLPRPRPRPTASPRP  -0.15
23. RRIRLRPPRLPRPRPRPSRIPRP  -0.15
24. RRIRWRPPRLPRPRPRPSEMPRP  -0.148
25. RRIRNRPPRLPRPRPRPDTNPRP  -0.141
26. RRIRQRPPRLPRPRPRPCVTPRP  -0.141
27. RRIRSRPPRLPRPRPRPSRCPRP  -0.134
28. RRIRSRPPRLPRPRPRPITVPRP  -0.132
29. RRIRERPPRLPRPRPRPVEEPRP  -0.127
30. RRIRERPPRLPRPRPRPMFDPRP  -0.121
31. RRIRKRPPRLPRPRPRPQACPRP  -0.109
32. RRIRCRPPRLPRPRPRPVLFPRP  -0.101
33. RRIRWRPPRLPRPRPRPFFSPRP  -0.101
34. RRIRNRPPRLPRPRPRPIGQPRP  -0.0958
35. RRIRQRPPRLPRPRPRPTFPPRP  -0.0691
36. RRIRWRPPRLPRPRPRPGSIPRP  -0.0682
37. RRIRERPPRLPRPRPRPPLLPRP  -0.0533
38. RRIRQRPPRLPRPRPRPWREPRP  -0.0373
39. RRIRWRPPRLPRPRPRPQGDPRP  -0.0316
40. RRIRRRPPRLPRPRPRPCRSPRP  -0.03
41. RRIRDRPPRLPRPRPRPPCRPRP  -0.0227
42. RRIRARPPRLPRPRPRPQSMPRP  -0.0226
43. RRIRQRPPRLPRPRPRPYCHPRP  -0.0183
44. RRIRQRPPRLPRPRPRPCIWPRP  -0.018
45. RRIRPRPPRLPRPRPRPFNGPRP  -0.014
46. RRIRERPPRLPRPRPRPYDTPRP  -0.00822
47. RRIRVRPPRLPRPRPRPVPRPRP  -0.00795
48. RRIRYRPPRLPRPRPRPLEIPRP  -0.00674
49. RRIRARPPRLPRPRPRPNSYPRP  -0.00611
50. RRIRHRPPRLPRPRPRPGENPRP  -0.00146
51. RRIRCRPPRLPRPRPRPMNVPRP  -0.00117
52. RRIRPRPPRLPRPRPRPVKNPRP  0.00624
53. RRIRQRPPRLPRPRPRPADQPRP  0.012
54. RRIRWRPPRLPRPRPRPVLLPRP  0.0146
55. RRIRHRPPRLPRPRPRPGCCPRP  0.0396
56. RRIRRRPPRLPRPRPRPILWPRP  0.0428
57. RRIRKRPPRLPRPRPRPNMTPRP  0.0525
58. RRIRNRPPRLPRPRPRPFKNPRP  0.0633
59. RRIRFRPPRLPRPRPRPGDQPRP  0.0789
60. RRIRLRPPRLPRPRPRPRIPPRP  0.09
61. RRIRKRPPRLPRPRPRPMLQPRP  0.122
62. RRIRERPPRLPRPRPRPIASPRP  0.129
63. RRIRWRPPRLPRPRPRPRQCPRP  0.137
64. RRIRPRPPRLPRPRPRPVTKPRP  0.138
65. RRIRSRPPRLPRPRPRPAAHPRP  0.154
66. RRIRGRPPRLPRPRPRPDIVPRP  0.192
67. RRIRLRPPRLPRPRPRPILIPRP  0.198
68. RRIRHRPPRLPRPRPRPTGDPRP  0.208
69. RRIRDRPPRLPRPRPRPGWWPRP  0.227
70. RRIRRRPPRLPRPRPRPKKMPRP  0.318
71. RRIRTRPPRLPRPRPRPNAAPRP  0.371
72. RRIRLRPPRLPRPRPRPPTTPRP  0.449
73. RRIRRRPPRLPRPRPRPGAGPRP  0.475
74. RRIRRRPPRLPRPRPRPVRFPRP  0.632
75. RRIRMRPPRLPRPRPRPGGRPRP  1.04
